Experiment [1] addresses T1, 人AXL蛋白胞外段-人IgG1Fc段融合蛋白 (AXL-Fc) (human, UniProt P30530 26-451).
T1 construct: extracellular domain; Expressed in CHO-K1 cells; also called 靶抗原AXL-Fc; not shown: human IgG1 Fc fragment
T1 sequence (looked up): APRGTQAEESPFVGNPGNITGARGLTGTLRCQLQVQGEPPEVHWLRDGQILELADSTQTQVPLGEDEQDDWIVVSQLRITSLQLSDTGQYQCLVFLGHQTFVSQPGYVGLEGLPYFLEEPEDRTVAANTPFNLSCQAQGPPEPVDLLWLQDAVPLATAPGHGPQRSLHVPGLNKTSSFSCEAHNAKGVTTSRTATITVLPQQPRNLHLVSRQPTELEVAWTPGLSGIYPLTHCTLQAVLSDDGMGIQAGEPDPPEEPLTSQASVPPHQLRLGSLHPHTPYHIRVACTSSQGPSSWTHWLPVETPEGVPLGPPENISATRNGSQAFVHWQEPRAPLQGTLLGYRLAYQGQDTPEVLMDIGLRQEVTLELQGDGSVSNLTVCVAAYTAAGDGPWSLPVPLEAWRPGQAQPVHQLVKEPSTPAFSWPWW
Put plainly: ELISA, AXL-Fc coated at 1μg/ml, antibody titrated, OD450. Background: ELISA stands for enzyme-linked immunosorbent assay.

Experiment [2] concerns the target T2, BSA(BOVOGEN) (UniProt P02769 25-607).
T2 construct: Control coating
Briefly: ELISA, protein coated at 1μg/ml, C3D3 detected with HRP goat anti-human IgG.

The target of experiment [3] is T3, A549细胞表面AXL (UniProt P30530 26-894, limits assumed).
T3 construct: whole, on cells; Endogenous AXL on A549 cells, flow cytometry; also called AXL on A549 cells
T3 sequence (looked up): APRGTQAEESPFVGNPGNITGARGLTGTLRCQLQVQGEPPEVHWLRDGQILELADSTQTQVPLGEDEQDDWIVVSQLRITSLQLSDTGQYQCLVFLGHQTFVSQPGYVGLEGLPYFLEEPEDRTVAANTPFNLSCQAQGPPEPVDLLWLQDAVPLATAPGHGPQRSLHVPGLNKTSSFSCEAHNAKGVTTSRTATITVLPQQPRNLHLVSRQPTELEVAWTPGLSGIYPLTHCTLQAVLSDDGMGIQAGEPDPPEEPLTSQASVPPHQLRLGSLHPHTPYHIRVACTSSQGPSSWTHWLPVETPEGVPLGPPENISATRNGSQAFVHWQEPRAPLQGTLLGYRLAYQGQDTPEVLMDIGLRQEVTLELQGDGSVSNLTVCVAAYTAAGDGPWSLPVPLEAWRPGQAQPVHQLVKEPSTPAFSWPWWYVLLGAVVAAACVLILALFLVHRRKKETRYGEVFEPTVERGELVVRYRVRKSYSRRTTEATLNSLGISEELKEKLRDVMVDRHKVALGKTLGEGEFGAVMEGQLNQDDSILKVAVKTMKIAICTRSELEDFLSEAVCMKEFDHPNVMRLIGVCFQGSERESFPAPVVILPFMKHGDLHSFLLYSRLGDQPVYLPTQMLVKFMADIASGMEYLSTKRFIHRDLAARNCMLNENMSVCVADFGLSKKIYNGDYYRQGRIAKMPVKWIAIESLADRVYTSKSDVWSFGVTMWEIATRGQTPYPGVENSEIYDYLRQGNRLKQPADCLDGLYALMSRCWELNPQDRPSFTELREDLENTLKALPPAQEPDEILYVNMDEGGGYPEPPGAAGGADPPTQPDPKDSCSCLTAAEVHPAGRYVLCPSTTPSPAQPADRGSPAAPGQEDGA
Briefly: flow cytometry on A549 cells, C3D3 diluted to 20μg/ml and mixed with an equal volume of cells, PE mouse anti-human IgG. A general note: Flow cytometry measures light scatter and fluorescence of single cells or particles in a stream.

T2 sequence (P02769 25-607 limits assumed): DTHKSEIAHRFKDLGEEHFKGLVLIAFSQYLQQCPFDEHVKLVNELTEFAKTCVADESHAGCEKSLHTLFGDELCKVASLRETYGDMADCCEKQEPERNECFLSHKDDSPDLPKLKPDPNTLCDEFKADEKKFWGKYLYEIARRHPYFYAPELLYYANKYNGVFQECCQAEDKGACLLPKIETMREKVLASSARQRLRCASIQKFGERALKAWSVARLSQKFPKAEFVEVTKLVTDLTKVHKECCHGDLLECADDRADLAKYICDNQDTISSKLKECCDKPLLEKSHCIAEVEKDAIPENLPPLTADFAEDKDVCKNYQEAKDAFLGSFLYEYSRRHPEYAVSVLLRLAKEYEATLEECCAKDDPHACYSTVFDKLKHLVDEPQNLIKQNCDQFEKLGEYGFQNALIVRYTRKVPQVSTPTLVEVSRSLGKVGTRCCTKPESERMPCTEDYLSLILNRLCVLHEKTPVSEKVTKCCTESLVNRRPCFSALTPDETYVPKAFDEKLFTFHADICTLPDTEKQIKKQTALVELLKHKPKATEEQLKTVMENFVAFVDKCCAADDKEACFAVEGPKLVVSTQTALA

B1: 3D3抗体 (antibody, V domains shown)
VH: EVKLLESGGGLVQPEGSLKLSCVASGFDFRRYWMSWVRQAPGKGLEWIGEINPAGSTINQTPSLKDKFIISRDNAKNTLYLQMSKVRSEDTALYYCVRLSVVFYYYGMDYWGQGTSVTVSS
VL: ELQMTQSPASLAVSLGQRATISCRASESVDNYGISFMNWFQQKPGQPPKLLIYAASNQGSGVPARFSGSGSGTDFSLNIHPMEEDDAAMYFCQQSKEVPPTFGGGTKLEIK
notes: also called 3D3 antibody
As to B1, the binding result in experiment [1] is recorded as “binds”.

B2: C3D3(Chimeric 3D3)抗体 (antibody, human IgG1, kappa, V domains shown)
VH: EVKLLESGGGLVQPEGSLKLSCVASGFDFRRYWMSWVRQAPGKGLEWIGEINPAGSTINQTPSLKDKFIISRDNAKNTLYLQMSKVRSEDTALYYCVRLSVVFYYYGMDYWGQGTSVTVSS
VL: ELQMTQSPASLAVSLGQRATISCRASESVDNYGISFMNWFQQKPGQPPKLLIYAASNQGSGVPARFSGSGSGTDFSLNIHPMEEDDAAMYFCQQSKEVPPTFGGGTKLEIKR
notes: Copies of 2 follow from the whole IgG format, not from a printed number; also called C3D3 antibody
Turning to B2, the figures for the binding result in experiment [1], in experiment [2] and in experiment [3] were “binds”, “no binding” and “binds”, respectively.

For the origin of these results see patent CN107759691A (HANGZHOU SHANGJIAN BIOTECHNOLOGY CO LTD, dated 2018).
